Test results as given in patent publication US20170275665.

Target: T1, Marinomonas mediterranea (MMB-1) Cas2, purified with N-terminal 6xHis tag
T1 chain: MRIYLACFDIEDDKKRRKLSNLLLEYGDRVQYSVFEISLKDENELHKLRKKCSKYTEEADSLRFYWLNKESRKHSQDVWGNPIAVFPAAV

B1: Marinomonas mediterranea (MMB-1) RT-Cas1 fusion protein, wild type, purified with N-terminal maltose-binding protein tag (protein)
chain: MLNSPLIDAVLPLRSVVITLRWLSPSKTGFLHHAGLHAWVRFLAGSPEQFSDFIVVEPIENGHISYQAGDGYRFRITVLNGGESLLDTLFSSLKRLPESAANHPDIAGAFSDNLVLEKIEDTFEHHQVTQIEDLSVFDINALMLETAVWSRQRRFKVAFNTPARLVKPKPEDGTELKGQNRYCRDKSDLNWQLFTHRLTDTFINLFQSRTGERLQRQNWPEAQLHAGLAVWLNNSYTNKKEKKVKDASGMLAQMQIEIDDDFPADLLALLVLGQYIGMGQNRAFGMGQYQLQDAYGYCSYPRPQAAKSLLEKSLSDASLHQACQTMYPRQANFDSSDTDEEHHDAIDELLTKLYVSRERIFKREFTPSQLHSVEIEKPEGGTRLLSVPNWHDRTLQKAVTECLGNTLEHIWMKHSYGYRKGHSRLQARDQINQYIQQGYEWVLESDIESFFDSVNWLNLEQRLKLLLPNEPLVPLLMQWVSAAKQTEDEQTLARHNGLPQGAPISPILANLLLDDLDQDMIAKGHQIVRYADDFVLLFKSKAAAESALDDIITALKEHHLAINLEKTRIVEASQGFRYLGYLFVDGYAIETKREYRKEHAQLDKQLNASSLENEPSLQQEPAVQNEQSTLIGEREKLGTLLIIAGDIAMLSSEKQRLIVEQYDELHTYPWATLSSVLLVGPHHITTPALKSAMFHNVPVHFASQYGRYQGVSAGAAPSVFGADFWLLQAQYLQQETNALNISQVLIQARIEGIRAVISRREKDAPELNKIQRLDEKRLRAETLDQLRGYEGQASKQLWAFFQRILEEDWGFTGRNRRPPKDPINALLSLGYTYLYSLVDSVNRTVGLYPWQGALHQRHGYHHTLASDLMEPWRYLVEHVVLTLINRHQIHKDDFVIKENGCEMSSGARKTLLKELLVQLTKVPKGGNSLLTEMSNQSYRLALSCKMQQRFIAWSPKR
cleavage of the CRISPR DNA substrate with ligation of a dsDNA oligonucleotide (in vitro cleavage-ligation assay, gel): products derived from cleavage of the CRISPR substrate were readily detected in the presence of RT-Cas1 and Cas2 together but not in the presence of either protein alone
